Assay results reported in patent US20200317768A1 (published 2020).

T1: cynomolgus monkey FcγRIIa2 extracellular domain, C-terminal His-tag (cynomolgus monkey)
T1 construct: also called cyno FcγRIIa2; FcgRIIa2
T1 chain: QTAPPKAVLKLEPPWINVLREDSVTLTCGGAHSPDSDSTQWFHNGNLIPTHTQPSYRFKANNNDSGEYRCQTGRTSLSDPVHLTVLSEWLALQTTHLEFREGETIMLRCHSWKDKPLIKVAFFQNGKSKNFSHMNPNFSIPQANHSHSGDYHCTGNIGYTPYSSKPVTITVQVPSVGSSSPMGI

T2: cynomolgus monkey FcγRIIIaS extracellular domain, C-terminal His-tag (cynomolgus monkey, UniProt Q8SPW2 21-206 at identity 1.00))
T2 construct: also called cyno FcγRIIIaS; FcgRIIIaS
T2 chain: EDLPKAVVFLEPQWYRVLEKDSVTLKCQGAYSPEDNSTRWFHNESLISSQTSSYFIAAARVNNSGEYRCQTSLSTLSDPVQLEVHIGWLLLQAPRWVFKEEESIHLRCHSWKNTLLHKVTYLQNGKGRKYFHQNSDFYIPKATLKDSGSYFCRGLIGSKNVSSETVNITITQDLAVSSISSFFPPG

T3: cynomolgus monkey FcγRIIa3 extracellular domain, C-terminal His-tag (cynomolgus monkey)
T3 construct: also called cyno FcγRIIa3; FcgRIIa3
T3 chain: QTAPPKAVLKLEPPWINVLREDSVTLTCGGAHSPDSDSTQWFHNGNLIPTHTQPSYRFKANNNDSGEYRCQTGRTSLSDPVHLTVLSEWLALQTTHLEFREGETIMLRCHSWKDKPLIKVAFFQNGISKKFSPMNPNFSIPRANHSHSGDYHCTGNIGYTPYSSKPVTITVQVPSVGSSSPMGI

T4: human FcγRIIaR extracellular domain, C-terminal His-tag (human, UniProt P12318 34-217)
T4 construct: also called human FcγRIIa (type R); FcgRIIaR
T4 chain: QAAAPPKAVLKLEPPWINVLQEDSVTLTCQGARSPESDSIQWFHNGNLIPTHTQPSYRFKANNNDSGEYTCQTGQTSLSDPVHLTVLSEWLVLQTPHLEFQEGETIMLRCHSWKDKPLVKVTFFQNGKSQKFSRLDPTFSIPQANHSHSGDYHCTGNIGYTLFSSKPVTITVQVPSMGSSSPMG

T5: human FcγRIIaH extracellular domain with C-terminal His-tag (human, UniProt P12318 34-217)
T5 construct: also called human FcgRIIaH; FcγRIIa (type H)
T5 sequence: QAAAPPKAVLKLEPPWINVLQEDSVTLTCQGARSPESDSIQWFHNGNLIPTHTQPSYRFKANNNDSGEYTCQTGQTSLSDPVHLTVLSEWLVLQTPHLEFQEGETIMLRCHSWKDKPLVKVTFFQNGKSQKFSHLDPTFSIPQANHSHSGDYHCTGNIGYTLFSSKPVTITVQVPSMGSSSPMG

T6: cynomolgus monkey FcγRIIa1 extracellular domain with C-terminal His-tag (cynomolgus monkey)
T6 construct: also called cyno FcgRIIa1; cynoFcγRIIa1
T6 chain: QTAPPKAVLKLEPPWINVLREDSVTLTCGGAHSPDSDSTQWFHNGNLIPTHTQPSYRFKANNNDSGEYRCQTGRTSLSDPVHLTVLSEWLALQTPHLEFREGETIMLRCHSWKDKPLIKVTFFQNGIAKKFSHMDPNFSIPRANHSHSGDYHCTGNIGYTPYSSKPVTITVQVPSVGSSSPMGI

T7: human FcγRIIb extracellular domain with C-terminal His-tag (human, UniProt P31994 43-217)
T7 construct: also called human FcgRIIb
T7 sequence: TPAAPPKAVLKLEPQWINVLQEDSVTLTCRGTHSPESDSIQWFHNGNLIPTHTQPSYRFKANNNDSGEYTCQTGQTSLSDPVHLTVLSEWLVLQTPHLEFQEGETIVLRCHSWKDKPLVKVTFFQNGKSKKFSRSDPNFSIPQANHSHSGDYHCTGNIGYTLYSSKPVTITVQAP

T8: cynomolgus monkey FcγRIIb extracellular domain with C-terminal His-tag (cynomolgus monkey)
T8 construct: also called cyno FcgRIIb; cynoFcγRIIb
T8 chain: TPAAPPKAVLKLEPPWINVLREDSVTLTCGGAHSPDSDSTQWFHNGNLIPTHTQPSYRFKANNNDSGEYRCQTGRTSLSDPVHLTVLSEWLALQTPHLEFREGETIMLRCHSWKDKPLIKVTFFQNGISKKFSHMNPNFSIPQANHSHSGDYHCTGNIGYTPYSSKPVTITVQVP


Legend:
[1] = target: T1, cynomolgus monkey FcγRIIa2 …; test: SPR; KD of SG1 / KD of variant
Method: (§1) The kinetic analysis of interactions between these antibodies and FcγR was carried out using BIACORE® T200 or BIACORE® 4000 (GE Healthcare). HBS-EP+ (GE Healthcare) was used as the running buffer, and the measurement temperature was set to 25° C. A chip produced by immobilizing Protein A. Protein A/G or mouse anti-human IgG kappa light chain (BD Biosciences) onto a Series S Sensor Chip CM4 or CM5 (GE Healthcare) by the amine-coupling method was used. […] After the measurement, the antibody captured on the chip was washed off by allowing reaction with 10 mM glycine-HCl, pH1.5 and 25 mM NaOH so that the chip was regenerated and used repeatedly. The sensorgrams obtained as measurement results were analyzed by the 1:1 Langmuir binding model using the BIACORE® Evaluation Software to calculate the binding rate constant ka (L/mol/s) and dissociation rate constant kd (l/s), and the dissociation constant KD (mol/L) was calculated from these values. […] Regarding such interactions, KD values were calculated using the following 1:1 binding model described in BIACORE® T100 Software Handbook BR1006-48 Edition AE.

[2] = target: T2, cynomolgus monkey FcγRIIIaS …; test: SPR; KD of SG1 / KD of variant
Method: as §1

[3] = target: T3, cynomolgus monkey FcγRIIa3 …; test: SPR; KD of SG1 / KD of variant
Method: as §1

[4] = target: T4, human FcγRIIaR extracellular domain, …; test: SPR; KD of SG1 / KD of variant
Method: as §1

[5] = target: T5, human FcγRIIaH extracellular domain …; test: SPR (BIACORE); KD of SG1 / KD of variant
Method: as §1
(§2) The behavior of interacting molecules according to the 1:1 binding model on BIACORE® can be described by Equation 1: Req=C·R max/(KD+C)+RI, wherein, Req is a plot of steady-state binding levels to analyte concentration. C is concentration, RI is bulk refractive index contribution in the sample, and Rmax is analyte binding capacity of the surface. When this equation is rearranged, KD can be expressed as Equation 2: KD=C·Rmax/(Req−RI)−C. KD can be calculated by substituting the values of Rmax, RI, and C into Equation 1 or Equation 2. From the current measurement conditions, RI=0, C=2 μmol/L can be used.

[6] = target: T6, cynomolgus monkey FcγRIIa1 …; test: SPR (BIACORE); KD of SG1 / KD of variant
Method: as §1, §2

[7] = target: T7, human FcγRIIb extracellular domain with …; test: SPR (BIACORE); KD of SG1 / KD of variant
Method: as §1, §2

[8] = target: T8, cynomolgus monkey FcγRIIb extracellular …; test: SPR (BIACORE); KD of SG1 / KD of variant
Method: as §1, §2
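Note: relative to parent M103205H795-SG1 carrying the SG1 human heavy chain constant region.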

Row | KD fold (SG1 = 1) [1] [fold] | KD fold (SG1 = 1) [2] [fold] | KD fold (SG1 = 1) [3] [fold] | KD fold (SG1 = 1) [4] [fold] | KD fold (SG1 = 1) [5] [fold] | KD fold (SG1 = 1) [6] [fold] | KD fold (SG1 = 1) [7] [fold] | KD fold (SG1 = 1) [8] [fold] | Binder
1 | 1 | 1 | 1 | 1 |  |  |  |  | MS_M103205H795-SG1/M103202L889-SK1 (antibody, human IgG1, kappa, also called MS1032LO06-SG1) heavy: not shown light: DIVMTQSPATLSLSPGERATLSCTSSQSVYHANWLSWFQQKPGQPPKLLIYWASTLAYGVPSRFSGSGSGTDFTLTISSLQPEDAATYYCAGGYGGGRYAFGQGTKVEIKRTVAAPSVFIFPPSDEQLKSGTASVVCLLNNFYPREAKVQWKVDNALQSGNSQESVTEQDSKDSTYSLSSTLTLSKADYEKHKVYACEVTHQGLSSPVTKSFNRGEC
2 |  |  |  |  | 1 | 1 | 1 | 1 | MS_M103205H795-SG1/M103202L889-SK1 (antibody, human IgG1, kappa, Parent antibody of the Fc variants; also called MS1032LO06-SG1) heavy: not shown light: DIVMTQSPATLSLSPGERATLSCTSSQSVYHANWLSWFQQKPGQPPKLLIYWASTLAYGVPSRFSGSGSGTDFTLTISSLQPEDAATYYCAGGYGGGRYAFGQGTKVEIKRTVAAPSVFIFPPSDEQLKSGTASVVCLLNNFYPREAKVQWKVDNALQSGNSQESVTEQDSKDSTYSLSSTLTLSKADYEKHKVYACEVTHQGLSSPVTKSFNRGEC
3 | 0.2 | 0.004 | 0.5 | 0.1 |  |  |  |  | M103205H795-MY009/M103202L889-SK1 (antibody, human IgG1, kappa, CH MY009 = SG1 with P238D (EU numbering); also called MS1032LO06-MY009) heavy: not shown light: DIVMTQSPATLSLSPGERATLSCTSSQSVYHANWLSWFQQKPGQPPKLLIYWASTLAYGVPSRFSGSGSGTDFTLTISSLQPEDAATYYCAGGYGGGRYAFGQGTKVEIKRTVAAPSVFIFPPSDEQLKSGTASVVCLLNNFYPREAKVQWKVDNALQSGNSQESVTEQDSKDSTYSLSSTLTLSKADYEKHKVYACEVTHQGLSSPVTKSFNRGEC
